Measurements as given in article PMC9436119, “Alkaline ceramidase catalyzes the hydrolysis of ceramides via a catalytic mechanism shared by Zn^2+-dependent amidases” (PLoS ONE, 2022).
One block for each molecule: values may come before it.

Legend:
[1] = biological target: T1, alkaline ceramidase 3 (ACER3) (Homo sapiens, UniProt Q9NUN7); experiment: microsomal ceramidase activity assay with NBD-C12-PHC, HPLC fluorescence; Lineweaver-Burk kinetics; assay type: biochemical
T1 sequence (Q9NUN7 1-267): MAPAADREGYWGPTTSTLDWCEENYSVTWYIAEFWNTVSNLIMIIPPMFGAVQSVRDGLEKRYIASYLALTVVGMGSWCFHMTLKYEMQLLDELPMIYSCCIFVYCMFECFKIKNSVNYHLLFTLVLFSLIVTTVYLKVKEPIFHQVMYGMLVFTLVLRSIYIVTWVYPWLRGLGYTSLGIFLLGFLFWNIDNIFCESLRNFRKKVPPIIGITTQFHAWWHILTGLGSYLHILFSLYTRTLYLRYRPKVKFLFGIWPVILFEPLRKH

[2] = substrate: CCCCCCCCCCCCCC[C@@H](O)[C@@H](O)[C@H](CO)NC(=O)CCCCCCCCCCCNc1ccc([N+](=O)[O-])c2nonc12; experiment: cells, lysate or membranes; assay type: biochemical, Homo sapiens
[3] = substrate: CCCCCCCCCCCCCC[C@@H](O)[C@@H](O)[C@H](CO)NC(=O)CCCCCCCCCCCNc1ccc([N+](=O)[O-])c2nonc12; experiment: Michaelis-Menten kinetics (KM), microsomal assay with HPLC fluorescence; assay type: biochemical, Homo sapiens; settings: Zn2+ (Ca2+ in buffer) Zn2+ active site

IC50 [1]: 71.4 µM
Molecule: CC(/C=C/C(=O)NO)=C\[C@@H](C)C(=O)c1ccc(N(C)C)cc1 [TSA, Trichostatin A]

B1: alkaline ceramidase 3 (ACER3) (Homo sapiens) (protein)
chain: MAPAADREGYWGPTTSTLDWCEENYSVTWYIAEFWNTVSNLIMIIPPMFGAVQSVRDGLEKRYIASYLALTVVGMGSWCFHMTLKYEMQLLDELPMIYSCCIFVYCMFECFKIKNSVNYHLLFTLVLFSLIVTTVYLKVKEPIFHQVMYGMLVFTLVLRSIYIVTWVYPWLRGLGYTSLGIFLLGFLFWNIDNIFCESLRNFRKKVPPIIGITTQFHAWWHILTGLGSYLHILFSLYTRTLYLRYRPKVKFLFGIWPVILFEPLRKH
notes: FLAG-tagged open reading frame of wild-type ACER3, in microsomes of yeast Δypc1Δydc1 cells
Km ([2]; Zn2+ (Ca2+ in buffer) Zn2+ active site (His81, His217, His221, Asp92, Ser77)): 15.48 ± 1.248 µM

B2: alkaline ceramidase 3 (ACER3) (Homo sapiens; S77C) (protein)
chain: MAPAADREGYWGPTTSTLDWCEENYSVTWYIAEFWNTVSNLIMIIPPMFGAVQSVRDGLEKRYIASYLALTVVGMGCWCFHMTLKYEMQLLDELPMIYSCCIFVYCMFECFKIKNSVNYHLLFTLVLFSLIVTTVYLKVKEPIFHQVMYGMLVFTLVLRSIYIVTWVYPWLRGLGYTSLGIFLLGFLFWNIDNIFCESLRNFRKKVPPIIGITTQFHAWWHILTGLGSYLHILFSLYTRTLYLRYRPKVKFLFGIWPVILFEPLRKH
notes: FLAG-tagged ACER3 S77C, in microsomes of yeast Δypc1Δydc1 cells
Km ([2]; Zn2+ (Ca2+ in buffer) Zn2+ active site): 66.43 ± 6.143 µM

B3: alkaline ceramidase 3 (ACER3) (Homo sapiens; S77A) (protein)
chain: MAPAADREGYWGPTTSTLDWCEENYSVTWYIAEFWNTVSNLIMIIPPMFGAVQSVRDGLEKRYIASYLALTVVGMGAWCFHMTLKYEMQLLDELPMIYSCCIFVYCMFECFKIKNSVNYHLLFTLVLFSLIVTTVYLKVKEPIFHQVMYGMLVFTLVLRSIYIVTWVYPWLRGLGYTSLGIFLLGFLFWNIDNIFCESLRNFRKKVPPIIGITTQFHAWWHILTGLGSYLHILFSLYTRTLYLRYRPKVKFLFGIWPVILFEPLRKH
notes: FLAG-tagged ACER3 S77A, in microsomes of yeast Δypc1Δydc1 cells
Km [3]: 38 µM
